Measurements reported in patent US20230144459A1, “SHEDDING BLOCKING AGENTS WITH INCREASED STABILITY” (BIOND BIOLOGICS LTD., priority 2020, published 2023).

B1: 4A4: VHH clone binding the stalk region of human CD28, SEQ ID NO: 34 (protein)
VHH: EVQLVESGGGLVQAGGSLRLSCAASGSLFSINAMAWYRQAPGKQRELVAAITSSGSTNYANSVKGRFTVSRDNAKNTMYLQMNSLKPEDTAVYYCVVDEYGSDYWIWGQGTQVTVSSAAAHHHHHH
B2: 4A1: VHH clone binding the stalk region of human CD28, SEQ ID NO: 35 (protein)
VHH: QVQLVESGGGLVQAGGSLRLSCAASGSIFSINAMGWYRQAPGKQRERVAAITSGGSTNYADSVKGRFTISRDNAKNTVYLQMNNLEPRDAGVYYCVVDLYGEDYWIWGQGTQVTVSSAAAHHHHHH

Tests used:
[1] = molecular target: T1, CD28 shedding in isolated human CD4 T cells (Homo sapiens, UniProt P10747); test: CD28 shedding in isolated CD4 T cells activated by PHA and IL2; type: cell-based; conditions: 5 μg/mL PHA, 200 IU/mL IL-2; 0.4-50 μg/mL
T1 construct: endogenous in cells; host or cells: CD4 T cells and PBMCs from fresh blood of healthy donors

[2] = molecular target: T2, CD28 shedding in HEK cells overexpressing human CD28 (Homo sapiens, UniProt P10747); test: HEK spontaneous CD28 shedding assay; type: cell-based; conditions: 48 hr, 3.3-100 μg/mL
T2 construct: HEK293 cells overexpressing human full-length CD28 were analyzed; expressed in transfected cells

[3] = molecular target: T3, human CD28 stalk region dimeric peptide (Homo sapiens, UniProt P10747); test: CD28 stalk region binding assay (ELISA), wild-type peptide; conditions: serial dilution ELISA
T3 construct: purchased Genecust Europe (custom synthesis, stated for the tagged peptide); host or cells: synthetic peptide

CD28 shedding in PBMC = molecular target: T4, CD28 shedding in PBMC (Homo sapiens, UniProt P10747); test: CD28 shedding in PBMC activated by superantigen (SEB); type: cell-based; conditions: 1 ng/mL SEB; 0.4-50 μg/mL
T4 construct: endogenous in cells; host or cells: CD4 T cells and PBMCs from fresh blood of healthy donors
Description: FIG. 9. […] Levels of soluble CD28 were measured in culture media of isolated PBMC stimulated with 1 ng/mL SEB (light grey bar). […] The levels of soluble human CD28 in the supernatant were quantified with standardized sandwich ELISA (R&D system).
Cellular assays evaluating anti shedding activity of VHH—For SEB activation of PBMCs, 0.1×10^6 PBMCs were stimulated with […] SEB (Sigma, Cat. No. S4881) for 5-7 days at 37° C. with/without the indicated concentrations of various treatments in 96 well plates. For PHA activated T cells, 0.1×10^6 CD4 T cells were incubated with the indicated concentration of Phytohemagglutinin (Sigma, Cat. No. L8902) and 200 IU/mL of IL-2 (Proleukine) for 5-7 days at 37° C. with/without the indicated concentrations of various treatments in 96 well plates. For HEK spontaneous CD28 shedding assay, 0.1×10^5 HEK cells were incubated for 48 hours at 37° C. with/without the indicated concentrations of various treatments in 96 well plates.

Molecule	inhibition of CD28 shedding, CD4 T cells activated by PHA and IL2 [1]	inhibition of CD28 shedding, HEK cells overexpressing human CD28 [2]	binding to human CD28 stalk region peptide (in words) [3]	inhibition of CD28 shedding, PBMC activated by SEB (CD28 shedding in PBMC)
B1	inhibit CD28 shedding	inhibit CD28 shedding	bind specifically	inhibit CD28 shedding
B2			bind specifically	
